Values of other authors, collected in article PMC7751257.

Biological target: Spike RBD RBD (SARS-CoV-2) (UniProt P0DTC2)

For “SBP1 α1 helix 23-mer (from UniProt Q9BYF1)”, the Kd is listed as 47 nM.
